According to patent US20160272693A1 (ZEALAND PHARMA A S, published 2016):
*1 amine or outer side, *2 acyl side, *3 side chain or, on linkers, in order; H or OH if unused. Bridges are numbered along the chain shown (N, C = ends). [ ]: non-standard residue; d: D form. The star is where a group is joined. Pro(trans-4-NH2) = O=C([C@@H]1C[C@@H](N[*:3])CN1[*:1])[*:2]; C20 diacid = O=C(O)CCCCCCCCCCCCCCCCCCC(=O)*; γGlu = O=C(O)[C@H](CCC(=O)[*:2])N[*:1]; Hyp = O=C(O)[C@@H]1C[C@@H](O)CN1; NMeI = CC[C@H](C)[C@H](NC)C(=O)O; Aad = N[C@@H](CCCC(=O)O)C(=O)O; Orn = NCCC[C@H](N)C(=O)O; Sar = CNCC(=O)O

T1: human amylin receptor 3 (hAMYR3), hCTR2 co-expressed with human receptor activity modifying protein 3 (hRAMP3) (human, UniProt P30988 25-474; O60896 24-148)
T1 sequence (looked up) 1: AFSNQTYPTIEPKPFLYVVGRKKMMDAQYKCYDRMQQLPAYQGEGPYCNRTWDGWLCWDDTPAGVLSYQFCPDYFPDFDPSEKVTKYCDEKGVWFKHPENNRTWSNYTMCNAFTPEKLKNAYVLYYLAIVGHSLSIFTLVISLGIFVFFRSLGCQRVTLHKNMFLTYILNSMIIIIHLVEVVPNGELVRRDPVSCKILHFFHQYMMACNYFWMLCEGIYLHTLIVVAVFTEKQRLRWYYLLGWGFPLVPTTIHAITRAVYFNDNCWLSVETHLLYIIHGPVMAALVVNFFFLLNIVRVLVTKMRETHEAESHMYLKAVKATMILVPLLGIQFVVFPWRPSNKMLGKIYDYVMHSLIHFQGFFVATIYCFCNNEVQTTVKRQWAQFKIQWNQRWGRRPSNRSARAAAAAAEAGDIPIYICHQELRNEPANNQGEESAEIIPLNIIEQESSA
T1 sequence (looked up) 2: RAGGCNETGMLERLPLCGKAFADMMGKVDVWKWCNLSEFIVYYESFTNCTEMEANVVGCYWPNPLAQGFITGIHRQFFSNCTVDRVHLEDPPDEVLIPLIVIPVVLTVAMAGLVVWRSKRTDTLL


Target: T1, human amylin receptor 3 (hAMYR3), hCTR2 …
Assay: cell-based or functional assay

Binder	hAMYR3 EC50 (nM); cAMP induction
{C20 diacid}-[γGlu]RCGTATCATERLAHFLTRSSF[Sar]A[NMeI]LSSTEVGS[Orn]TP-NH2 (disulfide 3-8; SMILES CC[C@H](C)[C@@H](C(=O)N[C@@H](CC(C)C)C(=O)N[C@@H](CO)C(=O)N[C@@H](CO)C(=O)N[C@H](C(=O)N[C@@H](CCC(=O)O)C(=O)N[C@H](C(=O)NCC(=O)N[C@@H](CO)C(=O)N[C@@H](CCCN)C(=O)N[C@H](C(=O)N1CCC[C@H]1C(N)=O)[C@@H](C)O)C(C)C)[C@@H](C)O)N(C)C(=O)[C@H](C)NC(=O)CN(C)C(=O)[C@H](Cc1ccccc1)NC(=O)[C@H](CO)NC(=O)[C@H](CO)NC(=O)[C@H](CCCNC(=N)N)NC(=O)[C@@H](NC(=O)[C@H](CC(C)C)NC(=O)[C@H](Cc1ccccc1)NC(=O)[C@H](Cc1c[nH]cn1)NC(=O)[C@H](C)NC(=O)[C@H](CC(C)C)NC(=O)[C@H](CCCNC(=N)N)NC(=O)[C@H](CCC(=O)O)NC(=O)[C@@H](NC(=O)[C@H](C)NC(=O)[C@@H]1CSSC[C@H](NC(=O)[C@H](CCCNC(=N)N)NC(=O)CC[C@H](NC(=O)CCCCCCCCCCCCCCCCCCC(=O)O)C(=O)O)C(=O)NCC(=O)N[C@@H]([C@@H](C)O)C(=O)N[C@@H](C)C(=O)N[C@@H]([C@@H](C)O)C(=O)N1)[C@@H](C)O)[C@@H](C)O) [[19CD]-isoGlu-R-C( )-GTAT-C( )-ATERLAHFLTRSSF-Gly(Me)-A-Ile(Me)-LSSTEVGS-Orn-TP-NH2 (Compd. 47)]	0.19 nM
{C20 diacid}-[γGlu]RCGTATCATERLAHFLTRSSF[Sar]A[NMeI]LSSTEVGSST[Pro(trans-4-NH2)]-NH2 (disulfide 3-8; SMILES CC[C@H](C)[C@@H](C(=O)N[C@@H](CC(C)C)C(=O)N[C@@H](CO)C(=O)N[C@@H](CO)C(=O)N[C@H](C(=O)N[C@@H](CCC(=O)O)C(=O)N[C@H](C(=O)NCC(=O)N[C@@H](CO)C(=O)N[C@@H](CO)C(=O)N[C@H](C(=O)N1C[C@H](N)C[C@H]1C(N)=O)[C@@H](C)O)C(C)C)[C@@H](C)O)N(C)C(=O)[C@H](C)NC(=O)CN(C)C(=O)[C@H](Cc1ccccc1)NC(=O)[C@H](CO)NC(=O)[C@H](CO)NC(=O)[C@H](CCCNC(=N)N)NC(=O)[C@@H](NC(=O)[C@H](CC(C)C)NC(=O)[C@H](Cc1ccccc1)NC(=O)[C@H](Cc1c[nH]cn1)NC(=O)[C@H](C)NC(=O)[C@H](CC(C)C)NC(=O)[C@H](CCCNC(=N)N)NC(=O)[C@H](CCC(=O)O)NC(=O)[C@@H](NC(=O)[C@H](C)NC(=O)[C@@H]1CSSC[C@H](NC(=O)[C@H](CCCNC(=N)N)NC(=O)CC[C@H](NC(=O)CCCCCCCCCCCCCCCCCCC(=O)O)C(=O)O)C(=O)NCC(=O)N[C@@H]([C@@H](C)O)C(=O)N[C@@H](C)C(=O)N[C@@H]([C@@H](C)O)C(=O)N1)[C@@H](C)O)[C@@H](C)O) [[19CD]-isoGlu-R-C( )-GTAT-C( )-ATERLAHFLTRSSF-Gly(Me)-A-Ile(Me)-LSSTEVGSST-Apr-NH2 (Compd. 45)]	0.31 nM
{C20 diacid}-[γGlu]RCGTATCATERLA[Aad]FLTRSSF[Sar]A[NMeI]LSSTEVGS[Orn]T[Hyp]-NH2 (disulfide 3-8; SMILES CC[C@H](C)[C@@H](C(=O)N[C@@H](CC(C)C)C(=O)N[C@@H](CO)C(=O)N[C@@H](CO)C(=O)N[C@H](C(=O)N[C@@H](CCC(=O)O)C(=O)N[C@H](C(=O)NCC(=O)N[C@@H](CO)C(=O)N[C@@H](CCCN)C(=O)N[C@H](C(=O)N1C[C@H](O)C[C@H]1C(N)=O)[C@@H](C)O)C(C)C)[C@@H](C)O)N(C)C(=O)[C@H](C)NC(=O)CN(C)C(=O)[C@H](Cc1ccccc1)NC(=O)[C@H](CO)NC(=O)[C@H](CO)NC(=O)[C@H](CCCNC(=N)N)NC(=O)[C@@H](NC(=O)[C@H](CC(C)C)NC(=O)[C@H](Cc1ccccc1)NC(=O)[C@H](CCCC(=O)O)NC(=O)[C@H](C)NC(=O)[C@H](CC(C)C)NC(=O)[C@H](CCCNC(=N)N)NC(=O)[C@H](CCC(=O)O)NC(=O)[C@@H](NC(=O)[C@H](C)NC(=O)[C@@H]1CSSC[C@H](NC(=O)[C@H](CCCNC(=N)N)NC(=O)CC[C@H](NC(=O)CCCCCCCCCCCCCCCCCCC(=O)O)C(=O)O)C(=O)NCC(=O)N[C@@H]([C@@H](C)O)C(=O)N[C@@H](C)C(=O)N[C@@H]([C@@H](C)O)C(=O)N1)[C@@H](C)O)[C@@H](C)O)	0.3 nM
{C20 diacid}-[γGlu]RCGTATCATERLA[Aad]FLTRSSF[Sar]A[NMeI]LSSTEVGSST[Hyp]-NH2 (disulfide 3-8; SMILES CC[C@H](C)[C@@H](C(=O)N[C@@H](CC(C)C)C(=O)N[C@@H](CO)C(=O)N[C@@H](CO)C(=O)N[C@H](C(=O)N[C@@H](CCC(=O)O)C(=O)N[C@H](C(=O)NCC(=O)N[C@@H](CO)C(=O)N[C@@H](CO)C(=O)N[C@H](C(=O)N1C[C@H](O)C[C@H]1C(N)=O)[C@@H](C)O)C(C)C)[C@@H](C)O)N(C)C(=O)[C@H](C)NC(=O)CN(C)C(=O)[C@H](Cc1ccccc1)NC(=O)[C@H](CO)NC(=O)[C@H](CO)NC(=O)[C@H](CCCNC(=N)N)NC(=O)[C@@H](NC(=O)[C@H](CC(C)C)NC(=O)[C@H](Cc1ccccc1)NC(=O)[C@H](CCCC(=O)O)NC(=O)[C@H](C)NC(=O)[C@H](CC(C)C)NC(=O)[C@H](CCCNC(=N)N)NC(=O)[C@H](CCC(=O)O)NC(=O)[C@@H](NC(=O)[C@H](C)NC(=O)[C@@H]1CSSC[C@H](NC(=O)[C@H](CCCNC(=N)N)NC(=O)CC[C@H](NC(=O)CCCCCCCCCCCCCCCCCCC(=O)O)C(=O)O)C(=O)NCC(=O)N[C@@H]([C@@H](C)O)C(=O)N[C@@H](C)C(=O)N[C@@H]([C@@H](C)O)C(=O)N1)[C@@H](C)O)[C@@H](C)O) [[19CD]-isoGlu-R-C( )-GTAT-C( )-ATERLA-Aad-FLTRSSF-Gly(Me)-A-Ile(Me)-LSSTEVGSST-Hyp-NH2 (Compd. 43)]	0.35 nM
{C20 diacid}-[γGlu]RCGTATCATERLAHFLTRSSF[Sar]A[NMeI]LSSTEVGSSTP-NH2 (disulfide 3-8; SMILES CC[C@H](C)[C@@H](C(=O)N[C@@H](CC(C)C)C(=O)N[C@@H](CO)C(=O)N[C@@H](CO)C(=O)N[C@H](C(=O)N[C@@H](CCC(=O)O)C(=O)N[C@H](C(=O)NCC(=O)N[C@@H](CO)C(=O)N[C@@H](CO)C(=O)N[C@H](C(=O)N1CCC[C@H]1C(N)=O)[C@@H](C)O)C(C)C)[C@@H](C)O)N(C)C(=O)[C@H](C)NC(=O)CN(C)C(=O)[C@H](Cc1ccccc1)NC(=O)[C@H](CO)NC(=O)[C@H](CO)NC(=O)[C@H](CCCNC(=N)N)NC(=O)[C@@H](NC(=O)[C@H](CC(C)C)NC(=O)[C@H](Cc1ccccc1)NC(=O)[C@H](Cc1c[nH]cn1)NC(=O)[C@H](C)NC(=O)[C@H](CC(C)C)NC(=O)[C@H](CCCNC(=N)N)NC(=O)[C@H](CCC(=O)O)NC(=O)[C@@H](NC(=O)[C@H](C)NC(=O)[C@@H]1CSSC[C@H](NC(=O)[C@H](CCCNC(=N)N)NC(=O)CC[C@H](NC(=O)CCCCCCCCCCCCCCCCCCC(=O)O)C(=O)O)C(=O)NCC(=O)N[C@@H]([C@@H](C)O)C(=O)N[C@@H](C)C(=O)N[C@@H]([C@@H](C)O)C(=O)N1)[C@@H](C)O)[C@@H](C)O) [[19CD]-isoGlu-R-C( )-GTAT-C( )-ATERLAHFLTRSSF-Gly(Me)-A-Ile(Me)-LSSTEVGSSTP-NH2 (Compd. 46)]	0.14 nM
{C20 diacid}-[γGlu]RCGTATCATERLAHFLTRSSF[Sar]A[NMeI]LSSTEVGSTT[Hyp]-NH2 (disulfide 3-8; SMILES CC[C@H](C)[C@@H](C(=O)N[C@@H](CC(C)C)C(=O)N[C@@H](CO)C(=O)N[C@@H](CO)C(=O)N[C@H](C(=O)N[C@@H](CCC(=O)O)C(=O)N[C@H](C(=O)NCC(=O)N[C@@H](CO)C(=O)N[C@H](C(=O)N[C@H](C(=O)N1C[C@H](O)C[C@H]1C(N)=O)[C@@H](C)O)[C@@H](C)O)C(C)C)[C@@H](C)O)N(C)C(=O)[C@H](C)NC(=O)CN(C)C(=O)[C@H](Cc1ccccc1)NC(=O)[C@H](CO)NC(=O)[C@H](CO)NC(=O)[C@H](CCCNC(=N)N)NC(=O)[C@@H](NC(=O)[C@H](CC(C)C)NC(=O)[C@H](Cc1ccccc1)NC(=O)[C@H](Cc1c[nH]cn1)NC(=O)[C@H](C)NC(=O)[C@H](CC(C)C)NC(=O)[C@H](CCCNC(=N)N)NC(=O)[C@H](CCC(=O)O)NC(=O)[C@@H](NC(=O)[C@H](C)NC(=O)[C@@H]1CSSC[C@H](NC(=O)[C@H](CCCNC(=N)N)NC(=O)CC[C@H](NC(=O)CCCCCCCCCCCCCCCCCCC(=O)O)C(=O)O)C(=O)NCC(=O)N[C@@H]([C@@H](C)O)C(=O)N[C@@H](C)C(=O)N[C@@H]([C@@H](C)O)C(=O)N1)[C@@H](C)O)[C@@H](C)O) [[19CD]-isoGlu-R-C( )-GTAT-C( )-ATERLAHFLTRSSF-Gly(Me)-A-Ile(Me)-LSSTEVGSTT-Hyp-NH2 (Compd. 48)]	0.26 nM
